{"source": "patent EP3984547A1", "about": "(Universitat Pompeu Fabra, dated 2022)", "note": "Where no end group is shown, it is not given here."}
{"biological_target": "T1, Histidine-tagged human TWEAK (His6-TWEAK) protein (R&D Systems) (human, UniProt O43508 93-249, limits assumed)", "T1 construct": "Bought protein, captured through the His6 tag on an NTA chip and then coupled covalently by amine coupling; also called human His6-TWEAK protein; histidine-tagged TWEAK; not shown: His6 tag", "T1 sequence (looked up)": "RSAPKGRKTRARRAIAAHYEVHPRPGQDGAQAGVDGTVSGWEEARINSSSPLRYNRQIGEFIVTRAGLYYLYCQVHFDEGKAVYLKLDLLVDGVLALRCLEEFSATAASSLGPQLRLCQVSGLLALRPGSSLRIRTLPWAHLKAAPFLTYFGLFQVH", "experiment": "SPR (Biacore 3000), His6-TWEAK immobilized on NTA chip, peptide as analyte, 1:1 Langmuir fit", "units": {"Kd": "µM"}}
{"binder": "TTDGSTGDDLQA-NH2", "note": "[Peptide 2: TTDGSTGDDLQA (SEQ ID NO: 1)]", "Kd": 170}
{"biological_target": "T2, TWEAK (Peprotech EC, Ltd, U.K.) (UniProt O43508 94-249, limits assumed)", "T2 sequence (looked up)": "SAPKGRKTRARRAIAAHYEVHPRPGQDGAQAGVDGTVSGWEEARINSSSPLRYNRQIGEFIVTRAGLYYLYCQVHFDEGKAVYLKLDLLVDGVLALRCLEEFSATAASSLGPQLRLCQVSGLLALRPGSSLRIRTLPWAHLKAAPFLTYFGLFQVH", "experiment": "cell-based or functional assay", "units": {"BIRC2 normalized level of expression (Zscore vs NARS2), RT-PCR, cells with peptide at 450 µM": "Zscore", "HSP90B1 normalized level of expression (Zscore vs NARS2), RT-PCR, cells with peptide at 450 µM": "Zscore", "IL6 normalized level of expression (Zscore vs NARS2), RT-PCR, cells with peptide at 450 µM": "Zscore", "JUN normalized level of expression (Zscore vs NARS2), RT-PCR, cells with peptide at 450 µM": "Zscore", "MAP4K4 normalized level of expression (Zscore vs NARS2), RT-PCR, cells with peptide at 450 µM": "Zscore", "MAPK14 normalized level of expression (Zscore vs NARS2), RT-PCR, cells with peptide at 450 µM": "Zscore", "NFkB2 normalized level of expression (Zscore vs NARS2), RT-PCR, cells with peptide at 450 µM": "Zscore", "TNFRSF12A normalized level of expression (Zscore vs NARS2), RT-PCR, cells with peptide at 450 µM": "Zscore", "TRAF2 normalized level of expression (Zscore vs NARS2), RT-PCR, cells with peptide at 450 µM": "Zscore"}}
{"binder": "SYTDVQDS-NH2", "note": "[Peptide 3: SYTDVQDS (SEQ ID NO: 3)]", "BIRC2 normalized level of expression (Zscore vs NARS2), RT-PCR, cells with peptide at 450 µM": -0.115, "HSP90B1 normalized level of expression (Zscore vs NARS2), RT-PCR, cells with peptide at 450 µM": -0.468, "IL6 normalized level of expression (Zscore vs NARS2), RT-PCR, cells with peptide at 450 µM": -0.972, "JUN normalized level of expression (Zscore vs NARS2), RT-PCR, cells with peptide at 450 µM": -0.206, "MAP4K4 normalized level of expression (Zscore vs NARS2), RT-PCR, cells with peptide at 450 µM": -1.36, "MAPK14 normalized level of expression (Zscore vs NARS2), RT-PCR, cells with peptide at 450 µM": -0.585, "NFkB2 normalized level of expression (Zscore vs NARS2), RT-PCR, cells with peptide at 450 µM": -1.15, "TNFRSF12A normalized level of expression (Zscore vs NARS2), RT-PCR, cells with peptide at 450 µM": -1.08, "TRAF2 normalized level of expression (Zscore vs NARS2), RT-PCR, cells with peptide at 450 µM": -0.577}
{"binder": "SWYDHMAGDSSY-NH2", "note": "[Peptide 1: SWYDHMAGDSSY (SEQ ID NO: 2)]", "BIRC2 normalized level of expression (Zscore vs NARS2), RT-PCR, cells with peptide at 450 µM": -0.747, "HSP90B1 normalized level of expression (Zscore vs NARS2), RT-PCR, cells with peptide at 450 µM": -1.1, "IL6 normalized level of expression (Zscore vs NARS2), RT-PCR, cells with peptide at 450 µM": 0.198, "JUN normalized level of expression (Zscore vs NARS2), RT-PCR, cells with peptide at 450 µM": -0.509, "MAP4K4 normalized level of expression (Zscore vs NARS2), RT-PCR, cells with peptide at 450 µM": -1.7, "MAPK14 normalized level of expression (Zscore vs NARS2), RT-PCR, cells with peptide at 450 µM": -1.11, "NFkB2 normalized level of expression (Zscore vs NARS2), RT-PCR, cells with peptide at 450 µM": -1.51, "TNFRSF12A normalized level of expression (Zscore vs NARS2), RT-PCR, cells with peptide at 450 µM": -1.05, "TRAF2 normalized level of expression (Zscore vs NARS2), RT-PCR, cells with peptide at 450 µM": -0.548}
{"binder": "TTDGSTGDDLQA-NH2", "note": "[Peptide 2: TTDGSTGDDLQA (SEQ ID NO: 1)]", "BIRC2 normalized level of expression (Zscore vs NARS2), RT-PCR, cells with peptide at 450 µM": -0.996, "HSP90B1 normalized level of expression (Zscore vs NARS2), RT-PCR, cells with peptide at 450 µM": -1.31, "IL6 normalized level of expression (Zscore vs NARS2), RT-PCR, cells with peptide at 450 µM": -0.535, "JUN normalized level of expression (Zscore vs NARS2), RT-PCR, cells with peptide at 450 µM": -0.488, "MAP4K4 normalized level of expression (Zscore vs NARS2), RT-PCR, cells with peptide at 450 µM": -1.13, "MAPK14 normalized level of expression (Zscore vs NARS2), RT-PCR, cells with peptide at 450 µM": -1.01, "NFkB2 normalized level of expression (Zscore vs NARS2), RT-PCR, cells with peptide at 450 µM": -1.21, "TNFRSF12A normalized level of expression (Zscore vs NARS2), RT-PCR, cells with peptide at 450 µM": -1.11, "TRAF2 normalized level of expression (Zscore vs NARS2), RT-PCR, cells with peptide at 450 µM": -0.409}
{"binder": "DNGGGNTDIYSE-NH2", "note": "[Peptide 4: DNGGGNTDIYSE (SEQ ID NO: 4)]", "BIRC2 normalized level of expression (Zscore vs NARS2), RT-PCR, cells with peptide at 450 µM": -0.61, "HSP90B1 normalized level of expression (Zscore vs NARS2), RT-PCR, cells with peptide at 450 µM": -0.921, "IL6 normalized level of expression (Zscore vs NARS2), RT-PCR, cells with peptide at 450 µM": -0.045, "JUN normalized level of expression (Zscore vs NARS2), RT-PCR, cells with peptide at 450 µM": -0.509, "MAP4K4 normalized level of expression (Zscore vs NARS2), RT-PCR, cells with peptide at 450 µM": -1.56, "MAPK14 normalized level of expression (Zscore vs NARS2), RT-PCR, cells with peptide at 450 µM": -1.11, "NFkB2 normalized level of expression (Zscore vs NARS2), RT-PCR, cells with peptide at 450 µM": -1.32, "TNFRSF12A normalized level of expression (Zscore vs NARS2), RT-PCR, cells with peptide at 450 µM": -1.11, "TRAF2 normalized level of expression (Zscore vs NARS2), RT-PCR, cells with peptide at 450 µM": -0.439}
